Laboratory results reported in the supplement of paper PMC9170038.

System: MS2 coat protein
Test: apparent KD of MS2 coat protein; designed switch direction (-1 OFF switch, 1 ON switch): -1; higher = weaker reporter binding
Summary of the method: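 The apparent KD reported per design is the median over clusters of curve fits to normalised cluster fluorescence. The RNA switches were transcribed on Illumina chips by stalled E. coli RNA polymerase. SNAP-549-labelled MS2 coat protein was titrated from 0.7 or 1.5 nM, doubling up to 3 µM, in Tris-HCl pH 7.5 buffer containing KCl, MgCl2, BSA, DTT, tRNA and Tween-20, with no input, 200 uM small-molecule ligand, or an oligonucleotide input.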

[1] = Eterna round: R95, input ligand: microRNA oligo, concentration not stated
[2] = input ligand: microRNA oligo, concentration not stated
[3] = Eterna round: R95, input ligand: FMN 200 uM
[4] = Eterna round: R95, input ligand: none

| Sequence | apparent KD of MS2 coat protein (input ligand: FMN 200 uM) [nM] | apparent KD of MS2 coat protein (input ligand: none) [nM] | apparent KD of MS2 coat protein [1] [nM] | also measured |
| --- | --- | --- | --- | --- |
| AAGCGGUGAGGAUAUACAUGAGGAUCACCCAUGUGUAUGCAGAGGGCGCGGUGUUGGUGUAGAAGGCACUGGGA [EX3 B.10] (Eterna round: R97, puzzle: Exclusion 3) | 23 | 19.4 | – | – |
| AAGGAUAGAGGAUAUACAUAGAUACAGAUUCAUGUGGUCCUACAUGAGGAUCACCCAUGUAGAAGGCUAUCCUA [Fiskers Ex 2 - 14] (puzzle: Exclusion 2) | – | – | 169 | – |
| AAGGCGCGCGUAGGAUAUCACCGCAAAAGUCGAUGAGAAGGGCGAGUGCAUGGUGUCCUAACUUGAGGAUCACCCAAGUAAAGA [Mutated MS2 EX1.22] (Eterna round: R96, puzzle: Exclusion NG 1) | 67.9 | 56.5 | – | apparent KD of MS2 coat protein [2]: 41.5 nM |
| AAGGGUACUUUCAGAACGACAUGAGGAUCACCCAUGUAGACUGAGGAUAUCUACUACUAAGGACGGGAGAAGGCAGUGUAAUGU [Ex NG3 #73] (Eterna round: R96, puzzle: Exclusion NG 3) | 13.8 | 15.2 | – | apparent KD of MS2 coat protein [2]: 10 nM |
| AAGGGUACUUUCAGAACGACAUGAGGAUCACCCAUGUAGACUGAGGAUAUCUACUUCUAAGGACGGGAGAAGGCAGUGUAAUGU [Ex NG3 #72] (Eterna round: R96, puzzle: Exclusion NG 3) | 11.4 | 13.5 | – | apparent KD of MS2 coat protein [2]: 10.7 nM |
| AAGGGUACUUUCGGAACGACAUGAGGAUCACCCAUGUAGACUGAGGAUAUCUGCUACUAAGGACGGGAGAAGGCAGUGUAAUGU [Ex NG3 #75] (Eterna round: R96, puzzle: Exclusion NG 3) | 18.5 | 18.7 | – | apparent KD of MS2 coat protein [2]: 12.8 nM |
| AAGUAACAUGAGGAUCACCCAUGUUAGGAUAUCUCGGCCGCGGCAUCGCCGCGAAACCAGAGAAGGAGCGGGUG [Erargeisar] (Eterna round: R97, puzzle: Exclusion 1) | 206 | 160 | – | – |
| AAGUACCGUCACGAUAGUGAUGGUACAACAAGUAUGUGAACAUGAGGAUCACCCAUGUCCUCUUUUGCUCGUCUUAU [Sensor 3 - 89] (puzzle: Sensor v3, turn-off variant 2) | – | – | 22.3 | apparent KD of MS2 coat protein [3]: 313 nM; apparent KD of MS2 coat protein [4]: 309 nM |
| AAGUAGUGUGUGAGGAUAUUGGUGGAAUGACACAUUAAGAAGGCACAUGAGGAUCACCCAUGUGGGUUGACACG [Brourd's EX4 #20] (Eterna round: R97, puzzle: Brourd's mod of Exclusion 4) | 282 | 47 | – | – |
| AAGUAUAGAGGAUAUAGUGAGUACUACAUGAGGAUCACCCAUGUUCUUCAAAGCGUAUUUCUAGAAGGCUGUUAAA [EX-5 Malc#18] (puzzle: Exclusion 5) | – | – | 48.7 | apparent KD of MS2 coat protein [3]: 123 nM; apparent KD of MS2 coat protein [4]: 53.1 nM |
| AAGUCAACAUGAGGAUCACCCAUGUCCAAGUUGAUGUCCUGUGAGGAUAUGUGUAAACGGCCGGCACAGAAGGCACAAGACGCG [Eternabot solution 5] (Eterna round: R96, puzzle: Exclusion NG 3) | 32.3 | 34.5 | – | apparent KD of MS2 coat protein [2]: 30.4 nM |
| AAGUCAGCAGGAUAUGCGAUGUUGGGCUAGGUAGCGUGACCACAUGAGGAUCACCCAUGUAGAAGGGCUGGCUA [EX2 Malc#36] (Eterna round: R96, puzzle: Exclusion 2) | 45.6 | 29.7 | – | apparent KD of MS2 coat protein [2]: 21.9 nM |
| AAGUCGAGCGUGAGGAUAUCGUCCGAACGACCGAACGAGAAGGCACAUGAGGAUCACCCAUGUGAUUCAGCUCA [Brourd's EX4 #48] (Eterna round: R97, puzzle: Brourd's mod of Exclusion 4) | 16.8 | 14.2 | – | – |
| AAGUGGAAAACACAAUUGUACAUGAGGAUCACCCAUGUAUGUACGAAAUAUAGACAAGCUGUAUGCUCGACAACACA [Sensor v2 M17] (Eterna round: R96, puzzle: Sensor v2, turn-off variant) | 36.3 | 37 | – | apparent KD of MS2 coat protein [2]: 18.3 nM |
| AAGUGUGCCUAGGAUAUGUUCGGCCAAGGUCAUACAGAAGGAGGCACAUGAGGAUCACCCAUGUAGUGUCCUAC [Soququis] (puzzle: Exclusion 6) | – | – | 59.6 | – |
| AAUAAAAGCGAGGAUAUCGUAUCGGAAACGAUACGAGAAGGCGUAACAUGAGGAUCACCCAUGUGUCCUCAAUA [Mat - Exclusion 6 - Eli Mod - D8] (Eterna round: R97, puzzle: Exclusion 6) | 1260 | 130 | – | – |
| AAUAACAAGCCGAUCCUCCACAUGAGGAUCACCCAUGUGUUCGUCUUGUAAAGUACUAUCACGAAAGUGAUAGUACA (Eterna round: R97, puzzle: Sensor, turn-off variant 1) | 23 | 30.5 | – | – |

| Sequence | apparent KD of MS2 coat protein (input ligand: FMN 200 uM) [nM] | apparent KD of MS2 coat protein (input ligand: none) [nM] | apparent KD of MS2 coat protein [1] [nM] | also measured |
| --- | --- | --- | --- | --- |
| AAUAACAAGCCGAUCCUUUACAUGAGGAUCACCCAUGUGCUCGUCUUGUAAAGUACUAUCACGAAAGUGAUAGUACA (Eterna round: R97, puzzle: Sensor, turn-off variant 1) | 28 | 27 | – | – |
| AAUAACAGAGGAUAUACUAUUUUAUGUGUUUGUUAUUUUGAACAUGAGGAUCACCCAUGUAGAAGGCUGAGUAA [JMF 36] (puzzle: Exclusion 2) | – | – | 26.8 | – |
| AAUAACAGAGGAUAUACUAUUUUAUGUGUUUGUUGUUUUAAACAUGAGGAUCACCCAUGUAGAAGGCUGAAUGA [JMF 61] (puzzle: Exclusion 2) | – | – | 23.8 | – |
| AAUAACAGAGGAUAUACUAUUUUAUGUGUUUGUUGUUUUAAACAUGAGGAUCACCCAUGUAGAAGGCUGAUUAA [JMF 46] (puzzle: Exclusion 2) | – | – | 33.1 | – |
| AAUAACAGAGGAUAUACUGUUUUAUGUAUUUAUUAUUUUAAACAUGAGGAUCACCCAUGUAGAAGGCUGAAUAA [JMF 12] (puzzle: Exclusion 2) | – | – | 19.1 | – |
| AAUAACAGAGGAUAUACUGUUUUAUGUGUUUAUUAUUUUGAACAUGAGGAUCACCCAUGUAGAAGGCUGAAUAA [JMF 21] (puzzle: Exclusion 2) | – | – | 22.2 | – |
| AAUAACAGAGGAUAUACUGUUUUAUGUGUUUAUUAUUUUGAACAUGAGGAUCACCCAUGUAGAAGGCUGAAUGA [JMF 63] (puzzle: Exclusion 2) | – | – | 27.6 | – |
| AAUAACAGAGGAUAUACUGUUUUAUGUGUUUGUUGUUUUGAACAUGAGGAUCACCCAUGUAGAAGGCUGAAUGA [JMF 68] (puzzle: Exclusion 2) | – | – | 24.2 | – |
| AAUAACAGAGGAUAUACUGUUUUAUGUGUUUGUUGUUUUGAACAUGAGGAUCACCCAUGUAGAAGGCUGAGUAA [JMF 41] (puzzle: Exclusion 2) | – | – | 22.9 | – |
| AAUAACUUAGGAUAUACAUGAGGAUCACCCAUGUCCCACCCGUUACCCAUGACCAUAUGUAGAAGGAAGAAGAA [Exy#8] (Eterna round: R97, puzzle: Exclusion 3) | 28 | 35.7 | – | – |
| AAUAAGCAAGGAUAUACGACGAAAAGCGUCAGUGGGCGAUGACAUGAGGAUCACCCAUGUAGAAGGUGCACAUC [Isragela] (puzzle: Exclusion 2) | – | – | 125 | apparent KD of MS2 coat protein [3]: 314 nM; apparent KD of MS2 coat protein [4]: 203 nM |
| AAUAAGCGAGGAUAUACAUGAGGAUCACCCAUGUGGACCGGGUGUUCAGCAAAUAAAAGUAGAAGGCGCAAAAG [Tibiater] (puzzle: Exclusion 3) | – | – | 46.8 | apparent KD of MS2 coat protein [3]: 29.1 nM; apparent KD of MS2 coat protein [4]: 25.8 nM |
| AAUAAGGGAGGAUAUGCGGAACGGUUUGUUCUCAGUGAGGCACAUGAGGAUCACCCAUGUAGAAGGCCCGGCAA [Orinar] (Eterna round: R96, puzzle: Exclusion 2) | 63.4 | 17.4 | – | apparent KD of MS2 coat protein [2]: 12.1 nM |
| AAUAAGGGAGGAUAUGCGGAACGGUUUGUUCUCAGUGAGGCACAUGAGGAUCACCCAUGUAGAAGGCCCGGCAA [Orinar] (puzzle: Exclusion 2) | – | – | 13 | – |
| AAUAAUAAAGUGAGGAUAUCUAGAGCCUCGGCUCUAGAGAAGGCACAUGAGGAUCACCCAUGUCUCAAUAAUAA [BmEx4/1-C5] (Eterna round: R97, puzzle: Brourd's mod of Exclusion 4) | 60.5 | 21.3 | – | – |
| AAUAAUAAGGAGGAUAUCGUAUCGGAGACGAUACGAGAAGGCUUAACAUGAGGAUCACCCAUGUUCCUCAAUAA [Mat - Exclusion 6 - Eli Mod - D89] (puzzle: Exclusion 6) | – | – | 35.2 | – |
| AAUACAAGCUAUUGAUCCCACAUGAGGAUCACCCAUGUUCCUGGCCGUGAGGCUAGGUAGACAAUAGCUCGUCUUAU [Sensor-V1 #43] (Eterna round: R97, puzzle: Sensor, turn-off variant 1) | 27.9 | 26.4 | – | – |
